Source: PMC8028046
pKd: −log10 of the molar value.

Tests used:
[1] = target: amyloid-beta fibrils (Homo sapiens) (UniProt P05067); assay: SPR; conditions: cited from earlier work
[2] = target: Aβ42 fibrils (human) (UniProt P05067); assay: SPR; Aβ42 fibrils immobilized; BRICHOS at 0.391-12.5 μM; global heterogeneous ligand model with two binding sites; apparent constants
[3] = target: soluble Aβ42 aggregates of different sizes (human) (UniProt P05067); assay: FCCS; time course of aggregation of 5, 10 or 20 μM unlabeled Aβ42 with 100 nM HiLyteFluor488-Aβ42 and 483 nM proSP-C BRICHOS T187R (100 nM labeled with Atto655); auto- and cross-correlation curves analysed by MEMFCS and a two-component 3D diffusion model
Sequence of soluble Aβ42 aggregates of different sizes (human) (P05067 671-713): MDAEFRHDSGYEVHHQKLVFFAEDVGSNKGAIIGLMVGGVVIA

Sequence of Aβ42 fibrils (human) (P05067 671-713): as above
Sequence of proSP-C BRICHOS WT (P11686 59-197): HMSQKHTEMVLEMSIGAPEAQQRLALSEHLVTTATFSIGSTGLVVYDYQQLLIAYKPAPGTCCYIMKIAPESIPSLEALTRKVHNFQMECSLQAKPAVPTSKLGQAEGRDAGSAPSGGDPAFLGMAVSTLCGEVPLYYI
Sequence of proSP-C BRICHOS BRICHOS (P11686 91-197): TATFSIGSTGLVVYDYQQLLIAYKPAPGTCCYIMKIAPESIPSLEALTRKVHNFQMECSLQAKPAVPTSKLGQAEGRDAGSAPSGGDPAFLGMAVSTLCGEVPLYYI
Sequence of amyloid-beta fibrils (Homo sapiens) (P05067 672-713): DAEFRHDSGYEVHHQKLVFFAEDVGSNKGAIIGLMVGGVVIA

Row | KD2 (binding site 2, apparent) [2] | ka2 (binding site 2) [2] | kd2 (binding site 2) [2] | stoichiometry N [3] | Substance | pKd [1]
1 |  |  |  |  | proSP-C BRICHOS BRICHOS (from UniProt P11686) | 7.40
2 | 25 nM | 6800 M^–1 s^–1 | 0.00017 s^–1 |  | proSP-C BRICHOS T187R (from UniProt P11686 59-197) (domain or fragment) | 
3 |  |  |  | < 10 | proSP-C BRICHOS T187R-Atto655 (from UniProt P11686 59-197) (domain or fragment) | 
4 | 130 nM | 1770 M^–1 s^–1 | 0.00023 s^–1 |  | proSP-C BRICHOS WT (from UniProt P11686 59-197) (domain or fragment) | 
